± gives the uncertainty stated by the source.
B1: TOX high mobility group box family member 3, residues 256 to 323; numbered along this chain, O15405 (parent)
chain: QKPVSAYALFFRDTQAAIKGQNPNATFGEVSKIVASMWDSLGEEQKQVYKRKTEAAKKEYLKALAAYR

Variants of: B1
Test: abundance fitness (aPCA) (normalised: wild type 0, dead -1); higher = more abundant; growth selection in yeast, the domain comes from the species named
Settings: Homo sapiens

Row | Variant | abundance fitness
1 | QKPVSAYALFFRDTQAAIKGQNPNATFGEVSKDVASMWDSLGEEQKQVYKRKTEAAKKEYLKALAAYR [I33D] | -0.771 ± 0.18
2 | QKPVSAYALFFRDTQAAIKGQNPNATFGEVSKEVASMWDSLGEEQKQVYKRKTEAAKKEYLKALAAYR [I33E] | -0.131 ± 0.067
3 | QKPVSAYALFFRDTQAAIKGQNPNATFGEVSKFVASMWDSLGEEQKQVYKRKTEAAKKEYLKALAAYR [I33F] | -0.5 ± 0.25
4 | QKPVSAYALFFRDTQAAIKGQNPNATFGEVSKGVASMWDSLGEEQKQVYKRKTEAAKKEYLKALAAYR [I33G] | -0.402 ± 0.067
5 | QKPVSAYALFFRDTQAAIKGQNPNATFGEVSKHVASMWDSLGEEQKQVYKRKTEAAKKEYLKALAAYR [I33H] | -0.324 ± 0.1
6 | QKPVSAYALFFRDTQAAIKGQNPNATFGEVSKKVASMWDSLGEEQKQVYKRKTEAAKKEYLKALAAYR [I33K] | -0.01 ± 0.081
7 | QKPVSAYALFFRDTQAAIKGQNPNATFGEVSKLVASMWDSLGEEQKQVYKRKTEAAKKEYLKALAAYR [I33L] | -0.016 ± 0.047
8 | QKPVSAYALFFRDTQAAIKGQNPNATFGEVSKMVASMWDSLGEEQKQVYKRKTEAAKKEYLKALAAYR [I33M] | 0.101 ± 0.071
9 | QKPVSAYALFFRDTQAAIKGQNPNATFGEVSKNVASMWDSLGEEQKQVYKRKTEAAKKEYLKALAAYR [I33N] | -0.329 ± 0.094
10 | QKPVSAYALFFRDTQAAIKGQNPNATFGEVSKPVASMWDSLGEEQKQVYKRKTEAAKKEYLKALAAYR [I33P] | -1.01 ± 0.12
11 | QKPVSAYALFFRDTQAAIKGQNPNATFGEVSKQVASMWDSLGEEQKQVYKRKTEAAKKEYLKALAAYR [I33Q] | -0.122 ± 0.092
12 | QKPVSAYALFFRDTQAAIKGQNPNATFGEVSKRVASMWDSLGEEQKQVYKRKTEAAKKEYLKALAAYR [I33R] | -0.134 ± 0.054
13 | QKPVSAYALFFRDTQAAIKGQNPNATFGEVSKSVASMWDSLGEEQKQVYKRKTEAAKKEYLKALAAYR [I33S] | -0.267 ± 0.05
14 | QKPVSAYALFFRDTQAAIKGQNPNATFGEVSKTVASMWDSLGEEQKQVYKRKTEAAKKEYLKALAAYR [I33T] | 0.021 ± 0.061
15 | QKPVSAYALFFRDTQAAIKGQNPNATFGEVSKVVASMWDSLGEEQKQVYKRKTEAAKKEYLKALAAYR [I33V] | -0.159 ± 0.052
16 | QKPVSAYALFFRDTQAAIKGQNPNATFGEVSKWVASMWDSLGEEQKQVYKRKTEAAKKEYLKALAAYR [I33W] | -0.507 ± 0.1
17 | QKPVSAYALFFRDTQAAIKGQNPNATFGEVSKYVASMWDSLGEEQKQVYKRKTEAAKKEYLKALAAYR [I33Y] | -0.174 ± 0.11
18 | QKPVSAYALFFRDTQAAIKGQNPNATFGEVSKIAASMWDSLGEEQKQVYKRKTEAAKKEYLKALAAYR [V34A] | -0.012 ± 0.05
19 | QKPVSAYALFFRDTQAAIKGQNPNATFGEVSKICASMWDSLGEEQKQVYKRKTEAAKKEYLKALAAYR [V34C] | -0.137 ± 0.093
20 | QKPVSAYALFFRDTQAAIKGQNPNATFGEVSKIDASMWDSLGEEQKQVYKRKTEAAKKEYLKALAAYR [V34D] | -0.541 ± 0.32

Row | Variant | abundance fitness
21 | QKPVSAYALFFRDTQAAIKGQNPNATFGEVSKIEASMWDSLGEEQKQVYKRKTEAAKKEYLKALAAYR [V34E] | -0.963 ± 0.17
22 | QKPVSAYALFFRDTQAAIKGQNPNATFGEVSKIFASMWDSLGEEQKQVYKRKTEAAKKEYLKALAAYR [V34F] | -0.956 ± 0.17
23 | QKPVSAYALFFRDTQAAIKGQNPNATFGEVSKIGASMWDSLGEEQKQVYKRKTEAAKKEYLKALAAYR [V34G] | -0.358 ± 0.06
24 | QKPVSAYALFFRDTQAAIKGQNPNATFGEVSKIHASMWDSLGEEQKQVYKRKTEAAKKEYLKALAAYR [V34H] | -1.06 ± 0.23
25 | QKPVSAYALFFRDTQAAIKGQNPNATFGEVSKIIASMWDSLGEEQKQVYKRKTEAAKKEYLKALAAYR [V34I] | -0.149 ± 0.09
26 | QKPVSAYALFFRDTQAAIKGQNPNATFGEVSKIKASMWDSLGEEQKQVYKRKTEAAKKEYLKALAAYR [V34K] | -0.922 ± 0.2
27 | QKPVSAYALFFRDTQAAIKGQNPNATFGEVSKILASMWDSLGEEQKQVYKRKTEAAKKEYLKALAAYR [V34L] | -0.529 ± 0.069
28 | QKPVSAYALFFRDTQAAIKGQNPNATFGEVSKIMASMWDSLGEEQKQVYKRKTEAAKKEYLKALAAYR [V34M] | -0.443 ± 0.092
29 | QKPVSAYALFFRDTQAAIKGQNPNATFGEVSKINASMWDSLGEEQKQVYKRKTEAAKKEYLKALAAYR [V34N] | -0.655 ± 0.27
30 | QKPVSAYALFFRDTQAAIKGQNPNATFGEVSKIPASMWDSLGEEQKQVYKRKTEAAKKEYLKALAAYR [V34P] | -0.689 ± 0.11
31 | QKPVSAYALFFRDTQAAIKGQNPNATFGEVSKIQASMWDSLGEEQKQVYKRKTEAAKKEYLKALAAYR [V34Q] | -0.954 ± 0.38
32 | QKPVSAYALFFRDTQAAIKGQNPNATFGEVSKIRASMWDSLGEEQKQVYKRKTEAAKKEYLKALAAYR [V34R] | -1.01 ± 0.14
33 | QKPVSAYALFFRDTQAAIKGQNPNATFGEVSKISASMWDSLGEEQKQVYKRKTEAAKKEYLKALAAYR [V34S] | -0.638 ± 0.091
34 | QKPVSAYALFFRDTQAAIKGQNPNATFGEVSKITASMWDSLGEEQKQVYKRKTEAAKKEYLKALAAYR [V34T] | -0.444 ± 0.11
35 | QKPVSAYALFFRDTQAAIKGQNPNATFGEVSKIWASMWDSLGEEQKQVYKRKTEAAKKEYLKALAAYR [V34W] | -0.92 ± 0.15
36 | QKPVSAYALFFRDTQAAIKGQNPNATFGEVSKIYASMWDSLGEEQKQVYKRKTEAAKKEYLKALAAYR [V34Y] | -0.974 ± 0.22
37 | QKPVSAYALFFRDTQAAIKGQNPNATFGEVSKIVCSMWDSLGEEQKQVYKRKTEAAKKEYLKALAAYR [A35C] | -0.275 ± 0.088
38 | QKPVSAYALFFRDTQAAIKGQNPNATFGEVSKIVDSMWDSLGEEQKQVYKRKTEAAKKEYLKALAAYR [A35D] | -0.275 ± 0.12
39 | QKPVSAYALFFRDTQAAIKGQNPNATFGEVSKIVESMWDSLGEEQKQVYKRKTEAAKKEYLKALAAYR [A35E] | -0.015 ± 0.078
40 | QKPVSAYALFFRDTQAAIKGQNPNATFGEVSKIVFSMWDSLGEEQKQVYKRKTEAAKKEYLKALAAYR [A35F] | -0.375 ± 0.11
